Paper PMC2172855

Target: microtubules of cultured mouse hippocampal neurons (mouse (endogenous in cultured hippocampal neurons)) (UniProt P68369)
Test: immunostaining of cells or tissue

fluorescence ratio of rigor-KIF5::GFP to tubulin staining, in axons: 1.2
fluorescence ratio of rigor-KIF5::GFP to tubulin staining, in dendrites: 0.5
Substance: tailless KIF5B G234A::YFP (from UniProt Q61768 1-761) (domain or fragment)
